The text below walks through data of the supplement of paper PMC10567573.

First the molecules themselves.
B1: ACSBG2 (parent)
chain: TPMTIPEFFRESVNRFGTYPALAS
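Also: lentivirally expressed fusions sorted by FACS into six bins by GFP to DsRed ratio, PSI derived from sequencing read proportions per bin multiplied by bin number.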

This series covers variants of B1. As to the kind of experiment: protein stability index of a GFP-peptide fusion (GPS, HEK-293T) (PSI 1-6); higher = more stable. Particulars: c terminus: a fixed tail appended.
As to TPMTIPEFFRESVNRFGTYPALFS, the protein stability index worked out at 1.67.

TPMTIPEFFRESVNRFGTYPALES: the protein stability index was found to be 2.61.

With TPMTIPEFFRESVNRFGTYPALSS, the protein stability index was found to be 2.56.

Regarding TPMTIPEFFRESVNRFGTYPALWS, the protein stability index was found to be 2.55.

Turning to TPMTIPEFFRESVNRFGTYPALNS, the protein stability index came to 2.5.

As for TPMTIPEFFRESVNRFGTYPALHS, the protein stability index was found to be 2.43.

In the case of TPMTIPEFFRESVNRFGTYPALGS, the protein stability index was found to be 2.2.

Take TPMTIPEFFRESVNRFGTYPALPS: the protein stability index came out at 2.2.

TPMTIPEFFRESVNRFGTYPALQS: the protein stability index amounted to 2.69.

TPMTIPEFFRESVNRFGTYPALKS: the protein stability index is 2.71.

In the case of TPMTIPEFFRESVNRFGTYPALRS, the protein stability index worked out at 2.56.

Turning to TPMTIPEFFRESVNRFGTYPALDS, the protein stability index amounted to 2.88.

TPMTIPEFFRESVNRFGTYPALMS: the protein stability index is 1.97.

In the case of TPMTIPEFFRESVNRFGTYPALCS, the protein stability index was found to be 1.77.

Regarding TPMTIPEFFRESVNRFGTYPALLS, the protein stability index is 2.19.

Regarding TPMTIPEFFRESVNRFGTYPALTS, the protein stability index worked out at 2.33.

As for TPMTIPEFFRESVNRFGTYPALIS, the protein stability index is 2.37.

With TPMTIPEFFRESVNRFGTYPALVS, the protein stability index was found to be 1.66.

For TPMTIPEFFRESVNRFGTYPALYS, the protein stability index was found to be 1.82.

For TPMTIPEFFRESVNRFGTYPALAT, the protein stability index was determined as 2.07.

Take TPMTIPEFFRESVNRFGTYPALAY: the protein stability index was 1.76.

For TPMTIPEFFRESVNRFGTYPALAR, the protein stability index is 2.96.

Turning to TPMTIPEFFRESVNRFGTYPALAH, the protein stability index amounted to 1.93.

As to TPMTIPEFFRESVNRFGTYPALAM, the protein stability index worked out at 2.67.

TPMTIPEFFRESVNRFGTYPALAA: the protein stability index was found to be 2.06.

On to TPMTIPEFFRESVNRFGTYPALAF, for which the protein stability index stood at 1.58.

As for TPMTIPEFFRESVNRFGTYPALAE, the protein stability index was 2.83.

Regarding TPMTIPEFFRESVNRFGTYPALAQ, the protein stability index turned out to be 2.08.

As to TPMTIPEFFRESVNRFGTYPALAC, the protein stability index was found to be 2.03.

For the variant TPMTIPEFFRESVNRFGTYPALAK, the protein stability index is 2.45.

In the case of TPMTIPEFFRESVNRFGTYPALAW, the protein stability index was found to be 1.66.

As to TPMTIPEFFRESVNRFGTYPALAG, the protein stability index was 2.18.

With TPMTIPEFFRESVNRFGTYPALAN, the protein stability index was 2.64.

Take TPMTIPEFFRESVNRFGTYPALAV: the protein stability index is 1.37.

For TPMTIPEFFRESVNRFGTYPALAD, the protein stability index was determined as 2.87.

TPMTIPEFFRESVNRFGTYPALAI: the protein stability index was 1.48.

In the case of TPMTIPEFFRESVNRFGTYPALAL, the protein stability index amounted to 2.04.

For TPMTIPEFFRESVNRFGTYPALAP, the protein stability index was determined as 2.52.

For the variant TPMTIPEFFRESVNRFGTYPAQAS, the protein stability index came out at 2.5.

Consider TPMTIPEFFRESVNRFGTYPARAS, for which the protein stability index was determined as 3.12.

As for TPMTIPEFFRESVNRFGTYPAVAS, the protein stability index was determined as 2.02.

In the case of TPMTIPEFFRESVNRFGTYPAYAS, the protein stability index amounted to 1.93.

In the case of TPMTIPEFFRESVNRFGTYPAWAS, the protein stability index stood at 2.57.

Turning to TPMTIPEFFRESVNRFGTYPATAS, the protein stability index amounted to 2.88.

With TPMTIPEFFRESVNRFGTYPASAS, the protein stability index was 3.04.
